Assay results reported in the DeepSol protein solubility set.

Test: soluble on expression in E. coli; label from the status in PepcDB or PDB records

Sequence | soluble on expression in E. coli
MGSDKIHHHHHHMVNSEQALHQHDPAPILQLDKVSKSFGPVNVINQVSIDVRPGRVLALLGENGAGKSTLIKMMSGVYQPDGGQILVDGKPTTLPDTKTAESFGIATIHQELNLVPTMTVAENVMLGRTPRKWGLVNFKHLRRQAQAALDLIGVDVDLNAQVGSLGIARQQMVEIAKALSMNARILILDEPTAALTGREIDQLFKVVDQLKEKGVAMVFISHHLDEIARIGDTVSVLRDGQFIAELPADTDEDELVRLMVGRSIENQYPRSAPEIGQPLLEVKNLNAEGRFTDISLTVRAGEVVGLAGLVGAGRTEVVRSIAGVDKVDSGEVIVAGKKLRGGDISEAIKNGIGHIPEDRKAQGLVLGSSVEDNLGLATLASTARAGLVDRSGQHKRAAEVAEKLRIRMASLKQPISDLSGGNQQKAVFGRWVLAGSNVLLLDEPTRGVDVGAKVEIYNIINEMTEKGGAVLMVSSELPEVLGMADRILVMSGGRIAGELPAKGTTQDDVMALAVSQVDDSITEEAAAEIENTKEDR | not soluble
MGSDKIHHHHHHMVNSSGLLAKLYNAFNPFEPLPAGDPKYVDCQDVRGDADIEQELGNRMRLADTNTCQLYSGHRGAGKSTELLRLKKYLENREFYVVYFAADEEDIDSEDAQYTDILLACTRRLLKDLKGIASPRPILDWLKGRWEDLKDLAQTPIEFESLGVEAQLTQFAKLTANLRAVPELRQKIRQKIDPYTVTLIQVLNEFLVDAKQHLPNGYKKLAVIVDNLDRMVLVKDAERTNYEEVFLDRSEQLQALDCHLIYTVPISMVYSTRATDLRDIYGDPQILPMIMVKTFEGNVYQPGLEKVKEVIKKRVRQIAPELSLETEIFDSPQTLDRLCLMSGGHVRNLLLLTQDAIGRSEDLPVSEKAVRRAITQARDTYRRAVENHQWCLLAEVSCSKRIINDDLYRSLMYNRCLLEYRYLDDDGEMQRWYDIHPLIQGIPEFKEAVAKLS | not soluble
MGSDKIHHHHHHMVQHLVDLLDTWLPSYQEDWVLAVLTQVEGSSYRKPGAIMLFHPMGKSLGMLSGGCLEADLRRHAQRAIQTQQVIQLTYDATDESDTSYQLGCGGIVNIMMVSLNKANNYLGLVSVHDALMRGDRGTYQLEIVADGVSSHQISGHFVEASSDAAPITLNTKTLKVTEQHKTLLQIPLRPPVHIGIFGGGLDAKPIAQMAQTMGWKVTIFDERTAYARTYDFPGCHIMKHPTPSISTDLLSGLDAAFIMSHNLQIDAKTLKTLQPLPLAYISLLGPVHRRDKVLDMAELSLKDFSGYFSAPAGLALGGELPGSVALSILSQCHGVLYNSKLTSLDSVML | not soluble
MGSDKIHHHHHHMVQLIKKYEDLLCLLDELIKNESTFRWDEFYLERERDVPFFVLAPDEQLVEYVCTGLIESGKVLELGCGPGRNAIYLAENHFEVDVVDLSQKAIDWAMDRANERKASIRFIRENIFNLNVNKASYDLVYDSGCFHHIPPHRRMDYIHLVTTALKPGGHFGLTCFIENGPLGGAAISDLDVYRQQSLQGGLGFTEQKLIQIFDDFAVIEIRKMKEYPNDSSRFGVNGLLTALFQKKKVEKVK | not soluble
MGSDKIHHHHHHMVSKLLALEAYPKLKDIDFRLLRAVELNMRHHKWVPLEDIARFARMDLESASYRLGKLDKLGLVIRRSDIGYIGYQLTIHGYDALAIRAFAKKGVIEAISTTHIGVGKDADVYVAITPQGEKVAIKFNRIGERTSARKAYYHSDVFADKHHKSWLYVSRLIAKKEHEALVLLSSFAKVPKPIAWNRHAIVMEFIDGVELAELRDTDLTKEEAEEILGKVLDEYEKIVKFGIVHGDMSEFNIVITKDNDILIIDWAQYLTCANPESLGLLKRDISVLLNAFRRRWGVKRDFEEEWKRFYEAWQIGRREKEES | not soluble
MGSDKIHHHHHHMVSKYHEIFLNIIQQIEDGQLKRGDKLPSIRQLSQDFHCSKDTVQKALSELKYQKYIYPILKSGYYVFEDNHEEEILPPISPSNYHNIAYEDFRTCMNETLVGREDYLFNYYHQEEGLEELTQSLQALFVDEAIYSKKENIVVTSGSQQALYILSQMTFPNQKEIILLEQPTYHRMNTLVKSQNLPYLTIERGFDGLDFNRLEEIFKQEKIKFFYTIPRLSNPLGLSYSHKEKQTLVELAHKYDVYIIEDDYMADFDRASNVSLHYLDTNDRIIYLKSFSMSLFPALRLGSLILPKKLLKKFLDYKNLIDYDTNLIMQKALSLYIDNGMFAKNKKRLKQMYYQKTSELAKEFSTFTLKLPHHIFQDSLILQLPTKVNLALLKYRLNSPNFLEKNYISTCPYHFIQLQAGENWQNLLTIFE | not soluble
MGSDKIHHHHHHMVSYKILSVANKLKNIRDKYGLSQEDLAGNEITRNLISQIEHNKANLTRSAAEIMLKNLKKICDKKNVQVDEDINYLMEDEKSQAIKVLDKYIDDLRDLTIYKDNVFINKLREVEDFLVTWDFRDKKITIFELAGDYFSSTNDFYNASLYYEKAKALIDINIYSDNIVHILRKLSMTYYYMLRYQDDINCCEFALKQFKNMDEEYRCIFLFNSSLCYGQLKKYDLALKRLNEVESIIKNIDQNKYYEVLIQKAICYQWMKEYQKSLDIYNKLLESIDKSDYEKYLFILVNSSDIYVENSNFEKAESNLRIILENINNLNESSTLLPSTYLEMSRILKKLGYTKDAELYCLKSLNYAKRNTHYYLVNDIYGELLDIYKTLNVPEKVQTIKDEFFSNSSRDKNLNSKLMFKLLDFYFATNDIHSIKEIYDFSKNFIQERMINLCY | not soluble
MGSDKIHHHHHHMVTGASGFVGSALCCELARTGYAVIAVVRRVVERIPSVTYIEADLTDPATFAGEFPTVDCIIHLAGRAHILTDKVADPLAAFREVNRDATVRLATRALEAGVKRFVFVSSIGVNGNSTRQQAFNEDSPAGPHAPYAISKYEAEQELGTLLRGKGMELVVVRPPLIYANDAPGNFGRLLKLVASGLPLPLDGVRNARSLVSRRNIVGFLSLCAEHPDAAGELFLVADGEDVSIAQMIEALSRGMGRRPALFTFPAVLLKLVMCLLGKASMHEQLCGSLQVDASKARRLLGWVPVETIGAGLQAAGREYILRQRERRK | not soluble
MGSDKIHHHHHHMVVESGFTAAQLPWLEGPRQAFLAQLTRQKMPHAQLVGIDSAYGGELLSVFMARAAMCLQPTPAGACGFCKSCQLFDAGNHPDFYHIAADGNQIKVDQIRELCTRLTATAQQSGMRVAIIHHSERLNSAAANALLKTLEEPGKDTLLILQSDTPARLMATVGSRCQRIPFVVPSREIIKNWLAQQCDIKEDVTWCLSVVGGPLQLAESLQSEGGQQSRYQSLLQFRKDWAQSLSSGHLCASLLTISEQQIIDVLKVLYLLIRQVLLKNSHQDAFIHAQLGNLAAKIMGMCHSLSTMPSVNYLALCQSYVLEYREITNK | not soluble
MGSDKIHHHHHHMVVTEYELKPQNFPRFPLDWSEIFGRKAKIVVEIGFGNGEFLAELARRHPEKDFVGFEVSITSFVKAQKKFKRYNLKNVRLVKVDARFGLRELFPDNSVEKVYINFPCPWPKKRHESRRITSYDFLQTLSAVLEMDGTVEFATDEEWYAREVLDTFESSEYFVVDVFEENFKRDVETRYERKWKSQGKKTFLIVARKVKNGTVKRLMEGENTMAHSVFEGNVTWEKLKELEGKVFKDKNKIFVVKKVYRDGDYLLKVISTDEGGFQQVYYLNLSGRDGKWVLKLDEGSDPYRTPALKWSLRRIPEELTAQGSP | not soluble
MGSDKIHHHHHHMYAYHPEDIEDIKELIAQTENEQVEFKETTGQLERGMETLCAFLNGEGGTVLFGITDKGKIIGQEVADVTKRSIAEAINRLEPTANVHVFYIPLPDSSKKIIALHVENSRDNRPFCYKSRPYYRVESVTSAMPQAVYNQLLIIRDEAKYRWELFENPKLSLQDMDENEILKTVRLGIECGRLPENTGNNLSIILEKFGLLVNGVLNNAAAVLFANRELIEYPQCLLRLARFKGTDKMVFMDNQRVQGNLFQLLDSAMTFIFKHLSLSGTTEALEREEHLTIPYKAIREGIINSLCHRQFRTPGGSVGIAIYDDRVEIENPGTFPHGWDMERMKSEHCSEPRNPLIANVLYKRKLLENWGRGISLMTEECRKANLPEPEFKLANGFVILVFRYGTNNHTSTMQVPHKHHISTIQVQSLLNIMEYNTYSVKEMMELLELKNRSYFSKEYLKPAVETGVIEPIFPDQPKSPKQKYRLTEKGKALLEKR | not soluble
MGSDKIHHHHHHMYDVLIIGAGPAGSSLARLIGDKYKVLLIDKRDLANENPHNLAGKCCGGLLAPDAQKMIAKLGLGIPKDILVNPQLFAVRTIDLTNNLERLYQRFYLNMDREKFDRWLVSILPKKVDKKFNAVFKDFVEIPGGYEVKYIHNGQEISAKTRVIIGADGAFSKLRRFLNQDINGPEKYIAIQEWYECPHHVPYFTAIFDEEISDFYSWIIPKENYLLLGSALKPKEKAREKYELLKTKLTQRGFNFDNKIRTEGAYLYRPKKVSQFYAGRDSIALVGEAAGGISPSSAEGISYALKSSAYLAQSLEEGIDGFLDRYKLKVKGIKLNLLLKNLKSPAMYNPLLRQLAMKSGLQSIDRTE | not soluble
MGSDKIHHHHHHMYFNVYGHAGKPIIVFPSSGGSQNEYGDFGMIEACQSFIDRGVVKFYTPDSLDRESWLAEGKSGHDMALAHEAYDRYIVHELVPLIRYESNWNGMMMATGCSMGAFHTVNFSLRHPDLFDISVALSGVYDARFFTGEFYGDPAVYYNSPIDYLWNQEDSWFLDRYRRNRFIVAVGQGAWEEPHIIDTIRLKEAFEAKSIPAWFDFWGSDVAHDWEWWRVQMPYFLGKLEEEGRI | not soluble
MGSDKIHHHHHHMYGVMIMKLKTNVFHFTPFSKKQLQVLTWWVNPSTKDSEAIICDGSVRAGKTVIMSLSYVMWAMHTFNGQQLGMAGKTIGSFRRNVLRPLKQMLAGRGYKVIDHRTDNMFEVVKNGKANYFFIFGGKDEASQDLVQGLTAAGFFFDEVALMPQSFVNQATARVSVSGGKYWFNMNPEGPYHWFKLNWIDDLKGKRALRIHFRMEDNPSLSEDVIGRYKRNYSGVFYQRYILGLWVMSEGVIYDNFNRETMVVSEPPGRCTKYYVSVDYGTQNPTVFLLWGFYNGVWYCLKEYYYDGRHSARQKTDDQYANDLDEFVGNINARIIIDPSAASFIAVLRNRHYRIIRADNDVLNGIRETQSAMNNGLIKFTDNLPNLFKELASYIWDDKASSNGEDKVIKEHDHAMDSMRYFVYMVLRHNNKAKVIKNKYF | not soluble
MGSDKIHHHHHHMYIFRSIHEIINTIFVAKGLLVEMFEKRKVLSFRYSDALALLKEDENRLKILIEKEIIHQNGNFVELDARFLDFFELLLEANEEINTATVEENIEYLHELMDYYLKEKIQSRKESYVRNIKITFQKLARVTIRNIINLQHNIDNAFKHEPTYQIKIAKLQNLDKKRINIQRLIDSTEHLILHEERDFFRQATDEELTRILLELRQELQLSAHSLIRAQQDIINYLNQIKNQVILVEKIRKVKYLQDQFELRARSNLSEIMERERSLLLEGNTQASFKLSPSYLASDEVRPIILKVISNQKYREIVRKNEAGAFSEEDLEAQAMYEEVINLDEVVTAFVQSGAEARWKGEPVSDLFSFLLQYHFHREVDEKERTTFFCQIVSLYESQLEIRNEFGLHNQYEYAKIYPL | not soluble
MGSDKIHHHHHHMYLKVFKEDVIDGLQKAANIIPAKTGAAYLRSIWLKAEAGMVHVLSTDSNIEFRGSYKAEVTEEGLAGVQGRAFVDLIRKLPAGEITLHLDPKTGTLGIEQGRRKYTLPTNDTAWFQNFSDYPESGSVFWSGDFLQELIDKLSFCISDEDTMEAIACMSMKPRQDNAIEACGLNGHQFAMQRFLNDDIHALLPAEGILVQKKYLMELKKWLGADEIELNIDNKRLFFRTGDKRETFSLPLSYYQYPDYTSFVSKLSTPDAGALEVNRKDMMAALDRVLIFNTDNNRCTYFDLEAGEVSLSSQGQEVGSASESLEGTYDGSLKRIAFPTRNLIEIMNHYQSDSMRFTLTGTEGPCGLTGENDPDYLVIVMPMKIVEETYYSEEEV | not soluble
